Measured values reported in paper PMC11748629, “Unidirectional MCM translocation away from ORC drives origin licensing” (Nature Communications, 2025).

T1: Mcm2 (Saccharomyces cerevisiae, UniProt P29469 1-868)
T1 construct: Mcm2, S. cerevisiae; Subunit of m7, written alone for the contacts seen in OC1M^Mcm5RA; also called Mcm2 subunit of MCM; source: S. cerevisiae strain yGC226, purified as a subunit of MCM-Cdt1
T1 sequence: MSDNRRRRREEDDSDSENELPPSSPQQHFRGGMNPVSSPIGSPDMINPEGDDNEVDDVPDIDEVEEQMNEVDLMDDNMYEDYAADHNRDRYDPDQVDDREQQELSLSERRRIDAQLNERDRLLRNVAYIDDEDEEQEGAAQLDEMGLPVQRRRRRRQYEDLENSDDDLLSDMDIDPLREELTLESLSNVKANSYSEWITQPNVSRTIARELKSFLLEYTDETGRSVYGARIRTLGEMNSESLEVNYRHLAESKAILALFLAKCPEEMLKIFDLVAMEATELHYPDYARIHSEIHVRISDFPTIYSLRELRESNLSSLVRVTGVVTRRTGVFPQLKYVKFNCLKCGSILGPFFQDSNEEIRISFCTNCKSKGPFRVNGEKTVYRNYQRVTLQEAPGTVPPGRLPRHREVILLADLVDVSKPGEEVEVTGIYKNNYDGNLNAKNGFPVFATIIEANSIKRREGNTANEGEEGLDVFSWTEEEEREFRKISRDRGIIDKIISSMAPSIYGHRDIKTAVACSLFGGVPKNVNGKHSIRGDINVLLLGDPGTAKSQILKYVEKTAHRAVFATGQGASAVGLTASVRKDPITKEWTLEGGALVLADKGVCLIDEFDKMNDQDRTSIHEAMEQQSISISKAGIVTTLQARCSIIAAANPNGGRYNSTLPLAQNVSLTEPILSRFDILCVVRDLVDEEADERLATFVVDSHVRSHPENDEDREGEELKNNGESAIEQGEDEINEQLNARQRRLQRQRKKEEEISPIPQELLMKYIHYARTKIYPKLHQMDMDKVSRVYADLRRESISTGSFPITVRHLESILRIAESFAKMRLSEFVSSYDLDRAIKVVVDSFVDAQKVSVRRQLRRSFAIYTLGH

B1: Orc3 (natural protein, Saccharomyces cerevisiae)
chain: MSDLNQSKKMNVSEFADAQRSHYTVYPSLPQSNKNDKHIPFVKLLSGKESEVNVEKRWELYHQLHSHFHDQVDHIIDNIEADLKAEISDLLYSETTQKRRCFNTIFLLGSDSTTKIELKDESSRYNVLIELTPKESPNVRMMLRRSMYKLYSAADAEEHPTIKYEDINDEDGDFTEQNNDVSYDLSLVENFKRLFGKDLAMVFNFKDVDSINFNTLDNFIILLKSAFKYDHVKISLIFNINTNLSNIEKNLRQSTIRLLKRNYHKLDVSSNKGFKYGNQIFQSFLDTVDGKLNLSDRFVEFILSKMANNTNHNLQLLTKMLDYSLMSYFFQNAFSVFIDPVNVDFLNDDYLKILSRCPTFMFFVEGLIKQHAPADEILSLLTNKNRGLEEFFVEFLVRENPINGHAKFVARFLEEELNITNFNLIELYHNLLIGKLDSYLDRWSACKEYKDRLHFEPIDTIFQELFTLDNRSGLLTQSIFPSYKSNIEDNLLSWEQVLPSLDKENYDTLSGDLDKIMAPVLGQLFKLYREANMTINIYDFYIAFRETLPKEEILNFIRKDPSNTKLLELAETPDAFDKVALILFMQAIFAFENMGLIKFQSTKSYDLVEKCVWRGI
notes: Orc3, S. cerevisiae; Subunit of m1, written alone for the contacts seen in the structures; also called Orc3 subunit of ORC; source: S. cerevisiae strain ySD-ORC, purified as a subunit of ORC
B2: Mcm5 R549A (natural protein, Saccharomyces cerevisiae)
chain: MSFDRPEIYSAPVLQGESPNDDDNTEIIKSFKNFILEFRLDSQFIYRDQLRNNILVKNYSLTVNMEHLIGYNEDIYKKLSDEPSDIIPLFETAITQVAKRISILSRAQSANNNDKDPENTSMDTDSLLLNSLPTFQLILNSNANQIPLRDLDSEHVSKIVRLSGIIISTSVLSSRATYLSIMCRNCRHTTSITINNFNSITGNTVSLPRSCLSTIESESSMANESNIGDESTKKNCGPDPYIIIHESSKFIDQQFLKLQEIPELVPVGEMPRNLTMTCDRYLTNKVIPGTRVTIVGIYSIYNSKNGAGSGRSGGGNGGSGVAIRTPYIKILGIQSDVETSSIWNSVTMFTEEEEEEFLQLSRNPKLYEILTNSIAPSIFGNEDIKKAIVCLLMGGSKKILPDGMRLRGDINVLLLGDPGTAKSQLLKFVEKVSPIAVYTSGKGSSAAGLTASVQRDPMTREFYLEGGAMVLADGGVVCIDEFDKMRDEDRVAIHEAMEQQTISIAKAGITTVLNSRTSVLAAANPIYGRYDDLKSPGDNIDFQTTILSAFDMIFIVKDDHNEERDISIANHVINIHTGNANAMQNQQEENGSEISIEKMKRYITYCRLKCAPRLSPQAAEKLSSNFVTIRKQLLINELESTERSSIPITIRQLEAIIRITESLAKLELSPIAQERHVDEAIRLFQASTMDAASQDPIGGLNQASGTSLSEIRRFEQELKRRLPIGWSTSYQTLRREFVDTHRFSQLALDKALYALEKHETIQLRHQGQNIYRSGV
notes: Mcm5, S. cerevisiae; Subunit of m7, written alone for the contacts seen in OC1M^Mcm5RA; also called Mcm5RA; source: S. cerevisiae strain yGC226, purified as a subunit of MCM-Cdt1

Columns and labels:
Mcm5 R549A = biological target: B2; test: cryo-EM structure; OC1M^Mcm5RA: 30 nM MH-ARS1-MH DNA, 60 nM ORC, 90 nM Cdc6, 60 nM MCM-Cdt1 (Mcm5 R549A), 2 mM ATP; same buffer; 30 °C, 30 min; conformer 1 at 3.7 Å, conformer 2 at 3.4 Å (Orc1 ATPase domain seen only in conformer 1); conditions: both partners purified
Mcm2 = biological target: T1, Mcm2; test: as above; conditions: both partners purified

Row | binding result (Mcm5 R549A) | binding result (Mcm2) | Binder
1 | binds | – | B1
2 | – | binds | B2
